Source: PMC8221791

Columns and labels:
recombinant CD36 [1] = target: recombinant CD36 (UniProt P16671); assay: static adhesion assay of infected erythrocytes on spots of recombinant protein; recombinant receptor adsorbed as 20 ul spots on petri dishes in PBS overnight at 4°C (two-fold dilutions 10 to 0.31 ug/ml), blocked with Albumax; Percoll-purified trophozoite-stage infected HbAA RBCs, 4x10^6 cells per ml, 1 h at 37°C; washed, fixed, Giemsa-stained, counted per image; four-parameter log-logistic fit
recombinant CD36 [2] = target: recombinant CD36 (UniProt P16671); assay: static adhesion assay of infected erythrocytes on spots of recombinant protein; recombinant receptor adsorbed as 20 ul spots on petri dishes in PBS overnight at 4°C (two-fold dilutions 10 to 0.31 ug/ml), blocked with Albumax; Percoll-purified trophozoite-stage infected HbAS (sickle-trait) RBCs, 4x10^6 cells per ml, 1 h at 37°C; washed, fixed, Giemsa-stained, counted per image; four-parameter log-logistic fit
[3] = target: recombinant Endothelial Protein C Receptor (EPCR) (UniProt Q9UNN8); assay: static adhesion assay of infected erythrocytes on spots of recombinant protein; recombinant receptor adsorbed as 20 ul spots on petri dishes in PBS overnight at 4°C (two-fold dilutions 10 to 0.31 ug/ml), blocked with Albumax; Percoll-purified trophozoite-stage infected HbAA RBCs, 4x10^6 cells per ml, 1 h at 37°C; washed, fixed, Giemsa-stained, counted per image; four-parameter log-logistic fit
[4] = target: recombinant Endothelial Protein C Receptor (EPCR) (UniProt Q9UNN8); assay: static adhesion assay of infected erythrocytes on spots of recombinant protein; recombinant receptor adsorbed as 20 ul spots on petri dishes in PBS overnight at 4°C (two-fold dilutions 10 to 0.31 ug/ml), blocked with Albumax; Percoll-purified trophozoite-stage infected HbAS (sickle-trait) RBCs, 4x10^6 cells per ml, 1 h at 37°C; washed, fixed, Giemsa-stained, counted per image; four-parameter log-logistic fit

Chain of UniProt Q9UNN8 (Q9UNN8 18-210): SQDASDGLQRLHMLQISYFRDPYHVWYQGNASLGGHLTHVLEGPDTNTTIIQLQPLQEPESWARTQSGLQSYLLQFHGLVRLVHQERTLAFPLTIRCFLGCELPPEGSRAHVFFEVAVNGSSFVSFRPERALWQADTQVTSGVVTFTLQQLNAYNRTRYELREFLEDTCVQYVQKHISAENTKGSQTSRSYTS
Chain of UniProt P16671 (P16671 whole entry): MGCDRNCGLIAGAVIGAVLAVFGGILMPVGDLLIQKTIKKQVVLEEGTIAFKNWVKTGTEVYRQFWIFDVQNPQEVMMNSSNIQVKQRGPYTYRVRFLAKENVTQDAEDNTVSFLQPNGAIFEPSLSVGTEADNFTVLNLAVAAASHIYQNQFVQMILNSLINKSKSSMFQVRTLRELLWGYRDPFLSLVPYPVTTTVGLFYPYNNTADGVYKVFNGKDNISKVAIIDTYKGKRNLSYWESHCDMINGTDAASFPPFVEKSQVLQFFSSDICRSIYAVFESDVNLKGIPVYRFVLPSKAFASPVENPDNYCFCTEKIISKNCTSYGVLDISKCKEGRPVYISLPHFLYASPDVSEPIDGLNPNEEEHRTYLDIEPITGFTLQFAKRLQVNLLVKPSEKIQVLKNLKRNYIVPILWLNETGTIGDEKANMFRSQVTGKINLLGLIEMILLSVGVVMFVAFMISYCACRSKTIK

| Substance | CD36 spot concentration at estimated 50% adhesion (recombinant CD36 [1]) [µg/mL] | CD36 spot concentration at estimated 50% adhesion (recombinant CD36 [2]) [µg/mL] | EPCR spot concentration at estimated 50% adhesion [3] [µg/mL] | EPCR spot concentration at estimated 50% adhesion [4] [µg/mL] |
| --- | --- | --- | --- | --- |
| IT4var30 PfEMP1 (CD36-binding P. falciparum Erythrocyte Membrane Protein 1 variant of strain IT4) (natural protein) | 2.5 | 2.7 | – | – |
| IT4var20 PfEMP1 (EPCR-binding P. falciparum Erythrocyte Membrane Protein 1 variant of strain IT4) (natural protein) | – | – | 0.3 | 0.5 |
